The values below come from patent publication US20250375497A1 (UNIVERSITY OF VIRGINIA PATENT FOUNDATION, published 2025).

The target in the assay is T1, Myc-tagged barley CslF6 (barley (Hordeum vulgare subsp. vulgare)).
T1 construct: also called Myc-tagged CslF6 species; not shown: Myc tag
T1 chain: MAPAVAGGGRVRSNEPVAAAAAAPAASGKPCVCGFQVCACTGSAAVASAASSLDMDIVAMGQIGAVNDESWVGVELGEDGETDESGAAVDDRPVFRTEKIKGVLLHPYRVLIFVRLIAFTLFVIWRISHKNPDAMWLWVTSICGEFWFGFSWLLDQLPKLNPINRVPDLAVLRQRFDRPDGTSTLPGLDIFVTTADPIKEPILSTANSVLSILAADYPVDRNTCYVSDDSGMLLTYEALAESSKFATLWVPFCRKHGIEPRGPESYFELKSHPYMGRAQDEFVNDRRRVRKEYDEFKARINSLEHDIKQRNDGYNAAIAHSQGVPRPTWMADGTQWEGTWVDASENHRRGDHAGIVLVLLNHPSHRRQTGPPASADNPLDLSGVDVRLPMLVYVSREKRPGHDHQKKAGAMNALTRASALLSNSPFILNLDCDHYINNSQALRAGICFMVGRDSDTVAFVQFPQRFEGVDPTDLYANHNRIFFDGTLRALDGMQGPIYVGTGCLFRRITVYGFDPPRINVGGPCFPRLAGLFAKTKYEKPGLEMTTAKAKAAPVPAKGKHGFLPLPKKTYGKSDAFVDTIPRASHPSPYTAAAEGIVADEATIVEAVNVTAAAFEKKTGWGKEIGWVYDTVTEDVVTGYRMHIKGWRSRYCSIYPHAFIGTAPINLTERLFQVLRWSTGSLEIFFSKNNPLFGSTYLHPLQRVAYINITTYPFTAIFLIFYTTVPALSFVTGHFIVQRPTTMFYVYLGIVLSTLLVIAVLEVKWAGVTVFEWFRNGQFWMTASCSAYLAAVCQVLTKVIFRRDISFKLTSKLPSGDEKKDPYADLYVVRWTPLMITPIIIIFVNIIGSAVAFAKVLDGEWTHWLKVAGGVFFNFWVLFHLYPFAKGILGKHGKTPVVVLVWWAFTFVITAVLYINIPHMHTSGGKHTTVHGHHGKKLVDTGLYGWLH
The experiment in a line: co-purification of His- and Myc-tagged CslF6.

B1: barley (Hordeum vulgare) cellulose synthase-like CslF6 with N-terminal 12xHis tag (enzyme)
chain: T1 chain
notes: Expressed in Sf9 insect cells and purified in detergent (LMNG/CHS, then GDN); also called HvCslF6; His-tagged CslF6; not shown: N-terminal 12xHis tag
As to B1, the binding result is “no binding”.
